Measurements: US20230272109A1

Target: Claudin 18.2 (UniProt P56856)
Experiment: flow cytometry (FACS), cells not given

B1: RGCLN18.2 antibody (antibody, human IgG1, kappa, V domains shown)
VH: QVQLVQSGAEVKKPGASVKVSCKASGYAFTNYLIEWVRQAPGQGLEWMGLINPGSGGTNYNEKFKGRVTMTRDTSTSTVYMELSSLRSEDTAVYYCARGGYYGNSFAYWGQGTLVTVSS
VL: DIVMTQSPLSLPVTPGEPASISCKSSQSLLNSGNQKNYLTWYLQKPGQSPQLLIYWASTRESGVPDRFSGSGSGTDFTLKISRVEAEDVGVYYCQNAYYYPYTFGGGTKVEIKR
EC50: 0.166 µg/mL
